± gives the standard error. Fewer inactive variants are shown than the library holds.
B1: glmS ribozyme (parent)
chain: AUAAAAGCGCCAGAACUACAGAAAUGUAGUUGACGAGGAGGAGGUUUAUCGAAUUUUCGGCGGAUGCCUCCAAA

What was measured:
Conditions in all cases: with glucosamine-6-phosphate
glucosamine-6-phosphate [1] = variants of: B1; experiment: self-cleavage kobs at 40 uM GlcN6P; higher = faster cleavage; RNA array
How it was run: (§1)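 Barcoded ribozyme variants on sequenced MiSeq chips were transcribed in situ by E. coli RNA polymerase and followed at 37 °C through a hybridised Cy3 probe. Glucosamine-6-phosphate at 40 μM to 10 mM in HEPES/KCl/Mg(OAc)2 buffer was flowed in, and tiles were imaged over ~14 h. Signals were normalised to baseline and to non-cleaving reference variants, and per-tile medians were fit to one- or two-exponential decays to give kobs. Weighted Michaelis–Menten fits across concentrations gave kcat and KM.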

glucosamine-6-phosphate [2] = variants of: B1; experiment: self-cleavage kobs at 160 uM GlcN6P; higher = faster cleavage; RNA array
How it was run: as §1

glucosamine-6-phosphate [3] = variants of: B1; experiment: self-cleavage kobs at 640 uM GlcN6P; higher = faster cleavage; RNA array
How it was run: as §1

glucosamine-6-phosphate [4] = variants of: B1; experiment: self-cleavage kobs at 2500 uM GlcN6P; higher = faster cleavage; RNA array
How it was run: as §1

glucosamine-6-phosphate [5] = variants of: B1; experiment: self-cleavage kobs at 10000 uM GlcN6P; higher = faster cleavage; RNA array
How it was run: as §1

Row | Variant | self-cleavage kobs at 40 uM GlcN6P (glucosamine-6-phosphate [1]) [s⁻¹] | self-cleavage kobs at 160 uM GlcN6P (glucosamine-6-phosphate [2]) [s⁻¹] | self-cleavage kobs at 640 uM GlcN6P (glucosamine-6-phosphate [3]) [s⁻¹] | self-cleavage kobs at 2500 uM GlcN6P (glucosamine-6-phosphate [4]) [s⁻¹] | self-cleavage kobs at 10000 uM GlcN6P (glucosamine-6-phosphate [5]) [s⁻¹]
1 | G13C U45C | < 1e-05 | < 1e-05 | < 1e-05 | < 1e-05 | 
2 | U30A A52C | < 1e-05 | < 1e-05 | < 1e-05 | < 1e-05 | < 1e-05
3 | A15G C16U A52U U57A G59U | < 1e-05 | < 1e-05 |  |  | < 1e-05
4 | A14G U54A | 0.00167 ± 0.00022 | 0.00342 ± 0.0007 | 0.027 ± 0.0081 | 0.0173 ± 0.0047 | 0.103 ± 0.048
5 | A12U A14G A52G | 0.000148 ± 3e-05 |  |  | 0.00387 ± 0.0018 | 0.00726 ± 0.0014
6 | A15C U47G G51A U56C | < 1e-05 |  |  | < 1e-05 | < 1e-05
7 | C16U A33U C50G A64U U69A | 0.000139 ± 2.3e-05 |  |  |  | 0.000172 ± 3.4e-05
8 | A14C G35U | < 1e-05 | < 1e-05 |  | < 1e-05 | < 1e-05
9 | A15U A33G G38C G40C C68U | < 1e-05 |  |  |  | < 1e-05
10 | A14U U55G C58U G66U C67G | 0.00272 ± 0.001 |  |  |  | 
11 | A14C C68U C71U | < 1e-05 |  |  |  | 
12 | A14G C34U C50G C68G | 7.72e-05 ± 1.6e-05 |  |  |  | 
13 | A14G U55G | 0.00161 ± 0.00014 | 0.00404 ± 0.00073 | 0.00984 ± 0.0012 | 0.00953 ± 0.0023 | 0.0589 ± 0.011
14 | A12C U49C U56G C58G | < 1e-05 |  | < 1e-05 |  | < 1e-05
15 | A12U G62U C70U | < 1e-05 |  |  |  | < 1e-05
16 | G29U U30C | < 1e-05 |  | < 1e-05 | < 1e-05 | 
17 | A14C U45G A52C G63A | < 1e-05 |  |  |  | 
18 | A14G G32C U49A | < 1e-05 |  |  |  | < 1e-05
19 | A15U C16G C58U G59U | < 1e-05 |  | < 1e-05 | < 1e-05 | 
20 | C11U U46A | < 1e-05 | < 1e-05 |  | 4.03e-05 ± 1.7e-05 | 9.01e-05 ± 1.7e-05
21 | A15C G29A G60A | < 1e-05 |  |  |  | 
22 | G13A G60U A64C | < 1e-05 |  |  |  | 
23 | G13C C61A C71U | < 1e-05 |  |  |  | 
24 | G21A G44U U57G C67A | < 1e-05 |  |  |  | 
25 | A14U G43U G51U | < 1e-05 |  |  | < 1e-05 | 

From the supplement of paper PMC7125110
